Among the data in US20240270821A1, “GIP/GLP1/GCG TRI-RECEPTOR AGONISTS AND USES THEREOF” (priority 2023, published 2024) are Relative cAMP EC50, nM (0.1% casein), cAMP Rel EC50, nM (1% HSA) and Relative cAMP EC50 values, retold here.

Assay in all cases: cell-based or functional assay
For assay [1], the target named is human glucagon receptor (human) (UniProt P47871).
The target of another assay is hGLP-1R (Homo sapiens, UniProt P43220).
The target in assay [2] is T1, human GIP receptor (human) (UniProt P48546).
T1 sequence (looked up): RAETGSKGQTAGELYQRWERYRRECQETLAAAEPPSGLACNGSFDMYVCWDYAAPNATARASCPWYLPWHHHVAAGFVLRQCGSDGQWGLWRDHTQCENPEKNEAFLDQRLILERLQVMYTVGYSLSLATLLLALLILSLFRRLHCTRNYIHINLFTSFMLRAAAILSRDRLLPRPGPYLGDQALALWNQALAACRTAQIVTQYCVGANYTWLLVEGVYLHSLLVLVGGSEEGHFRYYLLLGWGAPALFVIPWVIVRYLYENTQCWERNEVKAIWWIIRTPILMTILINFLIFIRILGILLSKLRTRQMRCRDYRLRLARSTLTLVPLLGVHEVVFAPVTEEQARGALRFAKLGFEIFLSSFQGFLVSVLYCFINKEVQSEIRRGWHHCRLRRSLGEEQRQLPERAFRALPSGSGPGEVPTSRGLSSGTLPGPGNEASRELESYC

Substitutions are numbered along the chain they refer to.

hGLP-1R, sequence (P43220 24-463): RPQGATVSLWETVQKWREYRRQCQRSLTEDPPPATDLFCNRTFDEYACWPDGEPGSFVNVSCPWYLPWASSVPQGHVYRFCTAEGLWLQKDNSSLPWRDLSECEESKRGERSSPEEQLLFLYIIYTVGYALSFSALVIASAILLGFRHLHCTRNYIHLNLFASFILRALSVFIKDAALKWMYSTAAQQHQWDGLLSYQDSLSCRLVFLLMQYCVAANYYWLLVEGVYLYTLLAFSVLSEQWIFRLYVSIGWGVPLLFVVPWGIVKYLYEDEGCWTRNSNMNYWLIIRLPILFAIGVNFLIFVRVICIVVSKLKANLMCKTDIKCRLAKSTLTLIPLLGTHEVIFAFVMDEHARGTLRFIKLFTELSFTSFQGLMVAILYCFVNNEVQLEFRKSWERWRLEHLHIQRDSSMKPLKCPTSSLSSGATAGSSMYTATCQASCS
human glucagon receptor (human), sequence (P47871 26-477): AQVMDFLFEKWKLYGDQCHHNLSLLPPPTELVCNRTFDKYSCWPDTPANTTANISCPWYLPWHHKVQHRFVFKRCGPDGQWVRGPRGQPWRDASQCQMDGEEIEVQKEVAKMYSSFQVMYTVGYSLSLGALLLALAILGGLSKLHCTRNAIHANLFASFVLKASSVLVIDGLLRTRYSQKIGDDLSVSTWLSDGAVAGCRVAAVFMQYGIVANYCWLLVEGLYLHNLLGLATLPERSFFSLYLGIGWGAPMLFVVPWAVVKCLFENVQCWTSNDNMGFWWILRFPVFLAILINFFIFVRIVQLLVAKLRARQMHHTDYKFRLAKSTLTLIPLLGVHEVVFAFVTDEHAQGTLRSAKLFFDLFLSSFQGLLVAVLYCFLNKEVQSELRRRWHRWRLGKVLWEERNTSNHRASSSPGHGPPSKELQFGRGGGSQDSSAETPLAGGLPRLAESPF

B1: Example 160 (peptide)
chain: YXQGTFTSDFSXXLDKKAQXAFIEYLLEGGPSSGAPPPEGT
modifications: Aib, Orn, αMeL, acylated Lys, amide; synthetic construct; SITE 2: note = 2-Aminoisobutyric Acid; SITE 12: note = L-ornithine; SITE 13: note = alpha-methyl-leucine; SITE 17: note = Lysine is chemically modified through conjugation of the epsilon-amino group of the Lysine side chain with (2-[2-(2-Amino-ethoxy)-ethoxy]-acetyl)-(gamma-Glu)
For the molecule B1, the Relative cAMP EC50, nM (0.1% casein) amounted to 4.32 nM in assay [1], 5.39 nM in the assay with hGLP-1R and 0.354 nM in assay [2]. In addition, the cAMP Rel EC50, nM (1% HSA) was 479 nM in assay [1], 482 nM in the assay with hGLP-1R and 44.4 nM in assay [2].

B2: Example 184 (peptide)
chain: B1 chain with G29X, P31X, E39S
modifications: non-natural residues, acylated Lys, C-terminal amide; synthetic construct; SITE 2: note = 2-Aminoisobutyric Acid; SITE 12: note = L-ornithine; SITE 13: note = alpha-methyl-leucine; SITE 17: note = Lysine is chemically modified through conjugation of the epsilon-amino group of the Lysine side chain with (2-[2-(2-Amino-ethoxy)-ethoxy]-acetyl)2-(gamma-Glu)
In the case of B2, the Relative cAMP EC50, nM (0.1% casein) in assay [1] is 5.23 nM; with hGLP-1R, 5.02 nM; in assay [2] it was 0.162 nM. Further, the cAMP Rel EC50, nM (1% HSA) in assay [1] was determined as 1050 nM; with hGLP-1R, 465 nM; in assay [2], 16.2 nM.

B3: Example 194 (peptide)
chain: B1 chain with G29X, T41S
modifications: Aib, Orn, αMeL; acylated lysine; C-terminal amide; synthetic construct; SITE 2: note = 2-Aminoisobutyric Acid; SITE 12: note = L-ornithine; SITE 13: note = alpha-methyl-leucine; SITE 17: note = Lysine is chemically modified through conjugation of the epsilon-amino group of the Lysine side chain with (2-[2-(2-Amino-ethoxy)-ethoxy]-acetyl)2-(gamma-Glu)
For the molecule B3, the Relative cAMP EC50, nM (0.1% casein) is 4.32 nM in assay [1], 4.69 nM with hGLP-1R and 0.212 nM in assay [2]. The figures for the cAMP Rel EC50, nM (1% HSA) (in assay [1]; with hGLP-1R; in assay [2]) were 813 nM, 697 nM and 19.7 nM, respectively.

B4: Example 215 (peptide)
chain: B1 chain with X12K, L27I, P31E, E39S, T41S
modifications: Lys acylated with AEEA-γGlu-C18 diacid; non-natural residues; C-amide; synthetic construct; SITE 2: note = 2-Aminoisobutyric Acid; SITE 13: note = alpha-methyl-leucine; SITE 17: note = Lysine is chemically modified through conjugation of the epsilon-amino group of the Lysine side chain with (2-[2-(2-Amino-ethoxy)-ethoxy]-acetyl)-(gamma-Glu)-CO-(CH2) 16-CO2H; SITE 20: n
Regarding B4, the Relative cAMP EC50 was found to be 9.77 nM in assay [1], 0.803 nM in the assay with hGLP-1R and 0.418 nM in assay [2]. In addition, the cAMP Rel EC50, nM (1% HSA) in assay [1] amounted to 1510 nM; with hGLP-1R it was 162 nM; in assay [2] it was 87.3 nM.

B5: Example 156 (peptide)
chain: B1 chain with G29A, A35E, E39S
modifications: (AEEA)2-γGlu-C18 diacid on Lys; non-natural residues; amide; synthetic construct; SITE 2: note = 2-Aminoisobutyric Acid; SITE 12: note = L-ornithine; SITE 13: note = alpha-methyl-leucine; SITE 17: note = Lysine is chemically modified through conjugation of the epsilon-amino group of the Lysine side chain with (2-[2-(2-Amino-ethoxy)-ethoxy]-acetyl)2-(gamma-Glu)
Take B5: the Relative cAMP EC50, nM (0.1% casein) in assay [1] came to 3.62 nM; with hGLP-1R, 3.37 nM; in assay [2], 0.208 nM. Besides, the figures for the cAMP Rel EC50, nM (1% HSA) (in assay [1]; with hGLP-1R; in assay [2]) were 1520 nM, 695 nM and 25.8 nM, respectively.

B6: Example 220 (peptide)
chain: B1 chain with X12R, L27I, P31E, E39S, T41S
modifications: non-natural residues; lysine acylated with AEEA linker C18 diacid; C-amide; synthetic construct; SITE 2: note = 2-Aminoisobutyric Acid; SITE 13: note = alpha-methyl-leucine; SITE 17: note = Lysine is chemically modified through conjugation of the epsilon-amino group of the Lysine side chain with (2-[2-(2-Amino-ethoxy)-ethoxy]-acetyl)-(gamma-Glu)-CO-(CH2) 16-CO2H; SITE 20: n
In the case of B6, the Relative cAMP EC50 in assay [1] was determined as 11.2 nM; with hGLP-1R it was 1.01 nM; in assay [2], 0.411 nM. The results for the cAMP Rel EC50, nM (1% HSA) (in assay [1]; in the assay with hGLP-1R; in assay [2]) were 1990 nM, 189 nM and 87.1 nM, respectively.

B7: Example 197 (peptide)
chain: B1 chain with E39G
modifications: non-natural residues; lipidated Lys; synthetic construct; SITE 2: note = 2-Aminoisobutyric Acid; SITE 12: note = L-ornithine; SITE 13: note = alpha-methyl-leucine; SITE 17: note = Lysine is chemically modified through conjugation of the epsilon-amino group of the Lysine side chain with (2-[2-(2-Amino-ethoxy)-ethoxy]-acetyl)-(gamma-Glu)
For B7, the Relative cAMP EC50 in assay [1] came to 3.23 nM; with hGLP-1R it was 4.81 nM; in assay [2], 0.31 nM. In addition, the cAMP Rel EC50, nM (1% HSA) was determined as 613 nM in assay [1], 440 nM with hGLP-1R and 44.1 nM in assay [2].

B8: Example 190 (peptide)
chain: B1 chain with F10X, G29X, P31H, E39S, T41S
modifications: Aib, F(4CN), Orn, αMeL; lysine acylated C18 diacid; amide; synthetic construct; SITE 2: note = 2-Aminoisobutyric Acid; SITE 10: note = 4-cyano-L-phenylalanine; SITE 12: note = L-ornithine; SITE 13: note = alpha-methyl-leucine; SITE 17: note = Lysine is chemically modified through conjugation of the epsilon-amino group of the Lysine side chain with (2-[2-(2-
Regarding B8, the Relative cAMP EC50, nM (0.1% casein) in assay [1] is 2.95 nM; with hGLP-1R, 1.41 nM; in assay [2], 0.306 nM. The cAMP Rel EC50, nM (1% HSA) was determined as 331 nM in assay [1], 172 nM with hGLP-1R and 59.4 nM in assay [2].

B9: Example 191 (peptide)
chain: B1 chain with F10X, G29X, E39S, T41S
modifications: non-natural residues; lysine acylated AEEA-γGlu-C18 diacid; C-terminal amide; synthetic construct; SITE 2: note = 2-Aminoisobutyric Acid; SITE 10: note = 4-cyano-L-phenylalanine; SITE 12: note = L-ornithine; SITE 13: note = alpha-methyl-leucine; SITE 17: note = Lysine is chemically modified through conjugation of the epsilon-amino group of the Lysine side chain with (2-[2-(2-
As to B9, the Relative cAMP EC50, nM (0.1% casein) in assay [1] amounted to 2.11 nM; with hGLP-1R it was 2.48 nM; in assay [2], 0.422 nM.

B10: Example 207 (peptide)
chain: B1 chain with G29A, P31H, E39S, T41E
modifications: Aib, Orn, αMeL, D-Ala; lysine acylated C18 diacid; amide; synthetic construct; SITE 2: note = 2-Aminoisobutyric Acid; SITE 12: note = L-ornithine; SITE 13: note = alpha-methyl-leucine; SITE 17: note = Lysine is chemically modified through conjugation of the epsilon-amino group of the Lysine side chain with (2-[2-(2-Amino-ethoxy)-ethoxy]-acetyl)-(gamma-Glu)
With B10, the figures for the Relative cAMP EC50 (in assay [1]; with hGLP-1R; in assay [2]) were 4.24 nM, 4.36 nM and 0.321 nM, respectively. For the same molecule, the cAMP Rel EC50, nM (1% HSA) turned out to be 770 nM in assay [1], 225 nM with hGLP-1R and 15.2 nM in assay [2].

B11: Example 216 (peptide)
chain: YXQGTFTSDFSKXLDKKAQXAFIEYLIEXGESSGAPPPSGS
modifications: Aib, αMeL; K acylated AEEA-γGlu-C18 diacid; C-amide; synthetic construct; SITE 2: note = 2-Aminoisobutyric Acid; SITE 13: note = alpha-methyl-leucine; SITE 17: note = Lysine is chemically modified through conjugation of the epsilon-amino group of the Lysine side chain with (2-[2-(2-Amino-ethoxy)-ethoxy]-acetyl)-(gamma-Glu)-CO-(CH2) 16-CO2H; SITE 20: n
B11: the figures for the Relative cAMP EC50 (in assay [1]; with hGLP-1R; in assay [2]) were 2.7 nM, 0.52 nM and 0.0887 nM, respectively. The values for the cAMP Rel EC50, nM (1% HSA) (in assay [1]; in the assay with hGLP-1R; in assay [2]) were 895 nM, 90.6 nM and 12 nM, respectively.

B12: Example 221 (peptide)
chain: B11 chain with K12R
modifications: C-terminal amide; lysine acylated with AEEA-γ-Glu-C18 diacid; synthetic construct; SITE 2: note = 2-Aminoisobutyric Acid; SITE 13: note = alpha-methyl-leucine; SITE 17: note = Lysine is chemically modified through conjugation of the epsilon-amino group of the Lysine side chain with (2-[2-(2-Amino-ethoxy)-ethoxy]-acetyl)-(gamma-Glu)-CO-(CH2) 16-CO2H; SITE 20: n
As to B12, the Relative cAMP EC50 in assay [1] came out at 11.3 nM; with hGLP-1R it was 0.629 nM; in assay [2], 0.105 nM.

B13: Example 219 (peptide)
chain: B11 chain with K12X, S41E
modifications: non-natural residues; lipidated Lys; C-terminal amide; synthetic construct; SITE 2: note = 2-Aminoisobutyric Acid; SITE 12: note = L-ornithine; SITE 13: note = alpha-methyl-leucine; SITE 17: note = Lysine is chemically modified through conjugation of the epsilon-amino group of the Lysine side chain with (2-[2-(2-Amino-ethoxy)-ethoxy]-acetyl)-(gamma-Glu)
For the molecule B13, the Relative cAMP EC50 was 7.77 nM in assay [1], 0.835 nM with hGLP-1R and 0.119 nM in assay [2].
